Measurements reported in US20260176603, “TYPE II CAS PROTEINS AND APPLICATIONS THEREOF” (Alia Therapeutics Srl, published 2026).

T1: BDLP Type II Cas (metagenomic)
T1 chain: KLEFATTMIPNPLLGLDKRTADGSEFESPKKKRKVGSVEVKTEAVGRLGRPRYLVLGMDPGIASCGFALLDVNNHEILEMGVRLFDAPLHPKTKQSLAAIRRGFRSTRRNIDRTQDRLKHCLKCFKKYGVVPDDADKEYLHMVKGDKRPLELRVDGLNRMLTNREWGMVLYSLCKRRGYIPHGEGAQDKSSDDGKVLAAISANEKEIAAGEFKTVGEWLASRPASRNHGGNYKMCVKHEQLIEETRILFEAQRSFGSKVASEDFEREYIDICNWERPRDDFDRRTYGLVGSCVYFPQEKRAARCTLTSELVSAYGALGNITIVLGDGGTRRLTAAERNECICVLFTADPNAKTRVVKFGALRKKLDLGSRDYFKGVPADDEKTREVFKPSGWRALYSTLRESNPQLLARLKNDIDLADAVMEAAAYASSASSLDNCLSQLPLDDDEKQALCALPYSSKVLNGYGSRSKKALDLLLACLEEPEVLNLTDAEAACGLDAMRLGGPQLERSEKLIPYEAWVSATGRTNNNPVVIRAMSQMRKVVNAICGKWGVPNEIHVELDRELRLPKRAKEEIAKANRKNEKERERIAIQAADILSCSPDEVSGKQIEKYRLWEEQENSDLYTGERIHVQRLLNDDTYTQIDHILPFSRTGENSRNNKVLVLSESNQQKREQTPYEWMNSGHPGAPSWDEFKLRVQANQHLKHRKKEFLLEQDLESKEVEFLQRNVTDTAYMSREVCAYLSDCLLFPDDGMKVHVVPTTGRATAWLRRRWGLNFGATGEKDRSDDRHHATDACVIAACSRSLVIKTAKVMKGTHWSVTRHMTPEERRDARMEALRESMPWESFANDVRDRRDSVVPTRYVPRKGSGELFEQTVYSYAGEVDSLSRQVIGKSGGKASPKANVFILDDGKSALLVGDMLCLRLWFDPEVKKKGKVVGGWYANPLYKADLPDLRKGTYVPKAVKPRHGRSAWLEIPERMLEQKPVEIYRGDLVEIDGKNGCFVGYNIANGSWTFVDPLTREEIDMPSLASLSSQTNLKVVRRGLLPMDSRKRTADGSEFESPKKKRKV

T2: EQSC Type II Cas (metagenomic)
T2 chain: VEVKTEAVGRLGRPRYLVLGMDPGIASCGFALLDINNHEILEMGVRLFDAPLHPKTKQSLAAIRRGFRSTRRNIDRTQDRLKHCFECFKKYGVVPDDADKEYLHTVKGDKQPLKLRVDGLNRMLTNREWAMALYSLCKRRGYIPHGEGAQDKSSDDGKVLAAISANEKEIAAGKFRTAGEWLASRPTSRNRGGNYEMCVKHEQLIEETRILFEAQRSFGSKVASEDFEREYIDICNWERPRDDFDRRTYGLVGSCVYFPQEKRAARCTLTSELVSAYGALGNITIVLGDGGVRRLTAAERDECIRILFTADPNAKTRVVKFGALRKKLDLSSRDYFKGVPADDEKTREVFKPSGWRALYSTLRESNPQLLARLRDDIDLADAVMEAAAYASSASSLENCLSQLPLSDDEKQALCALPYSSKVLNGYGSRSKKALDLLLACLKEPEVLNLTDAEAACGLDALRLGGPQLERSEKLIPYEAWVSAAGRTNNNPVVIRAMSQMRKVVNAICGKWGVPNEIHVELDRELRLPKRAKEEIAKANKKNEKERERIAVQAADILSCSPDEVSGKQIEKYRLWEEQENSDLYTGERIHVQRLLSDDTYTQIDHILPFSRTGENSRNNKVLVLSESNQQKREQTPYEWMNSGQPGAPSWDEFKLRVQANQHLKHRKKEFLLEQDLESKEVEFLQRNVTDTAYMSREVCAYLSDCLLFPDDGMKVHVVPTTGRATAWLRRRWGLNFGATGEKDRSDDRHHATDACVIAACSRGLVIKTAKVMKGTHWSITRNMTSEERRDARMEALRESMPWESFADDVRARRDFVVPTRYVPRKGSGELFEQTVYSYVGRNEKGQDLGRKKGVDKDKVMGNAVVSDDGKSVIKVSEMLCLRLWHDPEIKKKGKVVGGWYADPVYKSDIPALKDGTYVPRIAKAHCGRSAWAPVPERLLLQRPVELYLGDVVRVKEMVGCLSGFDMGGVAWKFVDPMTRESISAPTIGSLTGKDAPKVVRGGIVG

B1: gRNA-BDLP-EGFP-g2 ; EGFP target BDLP g2 (ssRNA ; dsDNA)
RNA: GGGGUAGCGGCUGAAGCACUGCAGUCUUGAGCUCGGAAACGAGACUCCAGACAAGGGGAGUCUACAACAGUAGGUUCACCCGUAGGGUUACCCCCGCGUCAUCCUCGGAAGGCGCGGGGCGAACUCUUUUUU
DNA 1: GTCGGGGTAGCGGCTGAAGCACTGCACGCCGTAGG
DNA 2: CCTACGGCGTGCAGTGCTTCAGCCGCTACCCCGAC
B2: gRNA-BDLP-EGFP-g1 ; EGFP target BDLP g1 (ssRNA ; dsDNA)
RNA: GCCCAUCCUGGUCGAGCUGGACGGGUCUUGAGCUCGGAAACGAGACUCCAGACAAGGGGAGUCUACAACAGUAGGUUCACCCGUAGGGUUACCCCCGCGUCAUCCUCGGAAGGCGCGGGGCGAACUCUUUUUU
DNA 1: GGTGCCCATCCTGGTCGAGCTGGACGGCGACGTAAA
DNA 2: TTTACGTCGCCGTCCAGCTCGACCAGGATGGGCACC
B3: gRNA-BDLP-EGFP-g3 ; EGFP target BDLP g3 (ssRNA ; dsDNA)
RNA: GUAGUUGCCGUCGUCCUUGAAGAAGUCUUGAGCUCGGAAACGAGACUCCAGACAAGGGGAGUCUACAACAGUAGGUUCACCCGUAGGGUUACCCCCGCGUCAUCCUCGGAAGGCGCGGGGCGAACUCUUUUUU
DNA 1: CTTGTAGTTGCCGTCGTCCTTGAAGAAGATGGTGCG
DNA 2: CGCACCATCTTCTTCAAGGACGACGGCAACTACAAG
B4: gRNA-EQSC-EGFP-g1 ; EGFP target EQSC g1 (ssRNA ; dsDNA)
RNA: GCCCAUCCUGGUCGAGCUGGACGGUCUUGAGCUCGGAAACGAGACUCCAGACAAGGGGAACCUACAACGGUAGGUUCACCCGUAGGGUUACCCCCGCGUCAUCUUCGGAAGGCGCGGGGCGAACUCUUUUUU
DNA 1: GGTGCCCATCCTGGTCGAGCTGGACGGCGACGTAAAC
DNA 2: GTTTACGTCGCCGTCCAGCTCGACCAGGATGGGCACC
B5: gRNA-EQSC-EGFP-g2 ; EGFP target EQSC g2 (ssRNA ; dsDNA)
RNA: UGCAGAUGAACUUCAGGGUCAGCGUCUUGAGCUCGGAAACGAGACUCCAGACAAGGGGAACCUACAACGGUAGGUUCACCCGUAGGGUUACCCCCGCGUCAUCUUCGGAAGGCGCGGGGCGAACUCUUUUUU
DNA 1: TGGTGCAGATGAACTTCAGGGTCAGCTTGCCGTAGGT
DNA 2: ACCTACGGCAAGCTGACCCTGAAGTTCATCTGCACCA
B6: gRNA-EQSC-EGFP-g3 ; EGFP target EQSC g3 (ssRNA ; dsDNA)
RNA: GCACGACUUCUUCAAGUCCGCCAGUCUUGAGCUCGGAAACGAGACUCCAGACAAGGGGAACCUACAACGGUAGGUUCACCCGUAGGGUUACCCCCGCGUCAUCUUCGGAAGGCGCGGGGCGAACUCUUUUUU
DNA 1: GCAGCACGACTTCTTCAAGTCCGCCATGCCCGAAGGC
DNA 2: GCCTTCGGGCATGGCGGACTTGAAGAAGTCGTGCTGC

Target: T1, BDLP Type II Cas
Assay: cell_activity; PAM NNNNGT; U2OS-EGFP
Conditions: tags: N-terminal SV5 tag and NLS, C-terminal NLS

activity, > 90 % EGFP KO:
B1
B2
B3

Target: T2, EQSC Type II Cas
Assay: cell_activity; PAM NNNNCNNA; U2OS-EGFP
Conditions: tags: N-terminal SV5 tag and NLS, C-terminal NLS

activity, > 90 % EGFP KO:
B4
B5
B6
